Assay results: US20050249719

Experiments:
[1] = biological target: T1, 33-mer gliadin peptide LQLQPFPQPQLPYPQPQLPYPQPQLPYPQPQPF
T1 chain: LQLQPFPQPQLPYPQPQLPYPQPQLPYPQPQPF

[2] = biological target: T2, gliadin peptide PQPQLPYPQPQLP
T2 chain: PQPQLPYPQPQLP

B1: human tissue transglutaminase (protein)
chain: AEELVLERCDLELETNGRDHHTADLCREKLVVRRGQPFWLTLHFEGRNYEASVDSLTFSVVTGPAPSQEAGTKARFPLRDAVEEGDWTATVVDQQDCTLSLQLTTPANAPIGLYRLSLEASTGYQGSSFVLGHFILLFNAWCPADAVYLDSEEERQEYVLTQQGFIYQGSAKFIKNIPWNFGQFEDGILDICLILLDVNPKFLKNAGRDCSRRSSPVYVGRVVSGMVNCNDDQGVLLGRWDNNYGDGVSPMSWIGSVDILRRWKNHGCQRVKYGQCWVFAAVACTVLRCLGIPTRVVTNYNSAHDQNSNLLIEYFRNEFGEIQGDKSEMIWNFHCWVESWMTRPDLQPGYEGWQALDPTPQEKSEGTYCCGPVPVRAIKEGDLSTKYDAPFVFAEVNADVVDWIQQDDGSVHKSINRSLIVGLKISTKSVGRDEREDITHTYKYPEGSSEEREAFTRANHLNKLAEKEETGMAMRIRVGQSMNMGSDFDVFAHITNNTAEEYVCRLLLCARTVSYNGILGPECGTKYLLNLNLEPFSEKSVPLCILYEKYRDCLTESNLIKVRALLVEPVINSYLLAERDLYLENPEIKIRILGEPKQKRKLVAEVSLQNPLPVALEGCTFTVEGAGLTEEQKTVEIPDPVEAGEEVKVRMDLLPLHMGLHKLVVNFESDKLKAVKGFRNVIIGPA
kcat/KM of deamidation [1]: kcat/KM=440 min-1 mM-1

B2: Flavobacterium meningosepticum prolyl endopeptidase (recombinant, expressed in E. coli) (protein)
chain: QNSNVLKYPETKKVSHTDTYFGTQVSDPYRWLEDDRAEDTKAWVQQEVKFTQDYLAQIPFRDQLKKQLMDIWNYEKISAPFKKGKYTYFSKNDGLQAQSVLYRKDAAGKTEVFLDPNKFSEKGTTSLASVSFNKKGTLVAYSISEGGSDWNKIIILDAETKKQLDETLLDVKFSGISWLGDEGFFYSSYDKPKEGSVLSGMTDKHKVYFHKLGTKQSQDELIIGGDKFPRRYIGAYVTDDQRYLVVSAANATNGNELYIKDLKNKTDFIPIITGFDSNVNVADTDGDTLYLFTDKDAPNKRLVKTTIQNPKAETWKDVIAETSEPLEINTGGGYFFATYMKDAIDQVKQYDKNGKLVRAIKLPGSGNASGFGGEKTEKDLYYSFTNYITPPTIFKYNVTTGNSEVYQKPKVKFNPENYVSEQVFYTSSDGTKIPMMISYKKGLKKDGKNPTILYSYGGFNISLQPAFSVVNAIWMENGGIYAVPNIRGGGEYGKKWHDAGTKMQKKNVFNDFIAAGEYLQKNGYTSKEYMALSGRSNGGLLVGATMTMRPDLAKVAFPGVGVLDMLRYNKFTAGAGWAYDYGTAEDSKEMFEYLKSYSPVHNVKAGTCYPSTMVITSDHDDRVVPAHSFKFGSELQAKQSCKNPILIRIETNAGHGAGRSTEQVVAENADLLSFALYEMGIKSLK
competitive proteolysis of the 13-mer and the 33-mer [1]: showed comparable selectivity for both peptides | initial rate on the 33-mer, fold against MX PEP [1]: 5-fold faster on the 33-mer than the MX PEP | initial rate on the 33-mer, fold against SC PEP [1]: >20 fold faster than the SC PEP | rate of substrate (33-mer+32-mer) disappearance [1]: 2.3 µM/min (FM PEP) | time to hydrolyze 10 µM of the 33-mer with 0.1 µM enzyme [1]: in about 2-3 minutes | Kcat/KM [2]: 178 mM^-1/s^-1 | competitive proteolysis of the 13-mer and the 33-mer [2]: showed comparable selectivity for both peptides
